Results from US20250011456A1, “ANTIBODIES AGAINST CD14 AND USES THEREOF” (Villanelle Life Science Inc, priority 2023, published 2025).
Several values for one entry are separate records, joined by “and”; a condition that tells them apart may be missing. Equal entries are not always repeated.

Tests used:
[1] = Mouse weight under anti-CD14-IgG1 dosages of Example 7 (PDX mice); assay type: in vivo
Description: (§1) To evaluate concentrations for the anti-CD14-IgG1 antibody, PDX mice were treated with five different concentrations of the IgG1 antibody over a period of 28 days. For these experiments, drug administration on the PDX mice was performed intravenously on alternating 4 days and 3 days.
(§2) The five different concentrations of the anti-CD14-IgG1 antibody tested include 5 mg/kg, 10 mg/kg, 15 mg/kg, 25 mg/kg, and 40 mg/kg. A control regimen was utilized as a comparative example. […] The non-specific IgG1 has no binding affinity to antigen. […] Tumor weight and tumor volume were calculated as described above.

[2] = tested on: CD14 positive recurrent bladder cancer patient-derived xenograft (PDX); test: Amount of anti-CD14-IgG1 (5-40 mg/kg) for tumor treatment in PDX mice (tumor length, width, volume, tumor weight; Example 7); assay type: in vivo; details: Day 0; IgG1 (5 mg/kg); per mouse 1-5; 5 mg/kg
From the text: After removing the primary tumor tissue from the patient, the tissue was temporarily placed in a complete culture medium containing RPMI1640 (Gibco Roswell Park Memorial Institute 1640 Media)+PS (penicillin and streptomycin)+10% FBS (Fetal bovine serum). The tissue was then transported to a sterile operating room within an SPF-grade (Specific Pathogen Free) animal facility. The tumor tissue was cut to an appropriate size (5 millimeters (mm) in diameter). Severely immunodeficient NSG (NOD scid gamma mouse) mice were anesthetized using an isoflurane respirator. The tumor was transplanted subcutaneously into the right rib area through surgery. When the tumor volume reached 1 cm^3, it was passaged following the same procedure, and after expanding for three generations, the tumor became stable for use in formal experiments. During the experiment, passaging and expansion were performed as needed. When the tumor volume reached 100 mm^3, the mice were divided into groups according to the experimental requirements and treated with drugs.
as §1, §2

B1: D6DD3D001: mouse-derived anti-CD14 IgG1 antibody; VH SEQ ID NO: 1, VL SEQ ID NO: 3, heavy chain SEQ ID NO: 2, light chain SEQ ID NO: 4 (antibody)
heavy: DVQLQQSGPGLVKPSQSLSLTCTVTGYSITSDSAWNWIRQFPGNRLEWMGYISYSGSTSYNPSLKSRISITRDTSKNQFFLQLNSVTTEDTATYYCVRGLRFAYWGQGTLVTVSSPSVFLFPPKPKDTLMISRTPEVTCVVVDVSHEDPEVKFNWYVDGVEVHNAKTKPREEQYNSTYRVVSVLTVLHQDWLNGKEYKCKVSNKALPAPIEKTISKAKGQPREPQVYTLPPSREEMTKNQVSLTCLVKGFYPSDIAVEWESNGQPENNYKTTPPVLDSDGSFFLYSKLTVDKSRWQQGNVFSCSVMHEALHNHYTQKSLSLSPGK
light: DIVLTQSPASLAVSLGQRATISCRASESVDSYVNSFLHWYQQKPGQPPKLLIYRASNLQSGIPARFSGSGSRTDFTLTINPVEADDVATYYCQQSNEDPYTFGGGTKLEIKRTVAAPSVFIFPPSDEQLKSGTASVVCLLNNFYPREAKVQWKVDNALQSGNSQESVTEQDSKDSTYSLSSTLTLSKADYEKHKVYACEVTHQGLSSPVTKSFNRGEC
- Mouse Weight ([1]; Day 0, IgG1 (10 mg/kg), per mouse 1-5, 10 mg/kg): 19.83 g and 20.73 g and 20.13 g and 20.77 g and 19.27 g
- Mouse Weight ([1]; Day 0, IgG1 (15 mg/kg), per mouse 1-5, 15 mg/kg): 20.37 g and 19.02 g and 20.34 g and 19.62 g and 19.24 g
- Mouse Weight ([1]; Day 0, IgG1 (25 mg/kg), per mouse 1-5, 25 mg/kg): 19.63 g and 20.3 g and 19.71 g and 20.07 g and 20.02 g
- Mouse Weight ([1]; Day 4, IgG1 (5 mg/kg), per mouse 1-5, 5 mg/kg): 20.33 g and 20.63 g and 19.58 g and 19.86 g and 20.45 g
- Mouse Weight ([1]; Day 4, IgG1 (10 mg/kg), per mouse 1-5, 10 mg/kg): 19.89 g and 20.39 g and 19.36 g and 20.74 g and 20.98 g
- Mouse Weight ([1]; Day 4, IgG1 (15 mg/kg), per mouse 1-5, 15 mg/kg): 20.83 g and 19.54 g and 20.87 g and 20.44 g and 20.68 g
- Mouse Weight ([1]; Day 4, IgG1 (25 mg/kg), per mouse 1-5, 25 mg/kg): 20.75 g and 19.2 g and 20.99 g and 20.16 g and 20.55 g
- Mouse Weight ([1]; Day 7, IgG1 (5 mg/kg), per mouse 1-5, 5 mg/kg): 20.95 g and 20.07 g and 20.36 g and 20.83 g and 20.56 g
- Mouse Weight ([1]; Day 7, IgG1 (10 mg/kg), per mouse 1-5, 10 mg/kg): 20.81 g and 19.35 g and 19.89 g and 20.23 g and 21.08 g
- Mouse Weight ([1]; Day 7, IgG1 (15 mg/kg), per mouse 1-5, 15 mg/kg): 19.65 g and 20.62 g and 20.38 g and 20.56 g and 20.71 g
- Mouse Weight ([1]; Day 7, IgG1 (25 mg/kg), per mouse 1-5, 25 mg/kg): 20.86 g and 20.2 g and 20.76 g and 21.38 g and 20.06 g
- Mouse Weight ([1]; Day 11, IgG1 (5 mg/kg), per mouse 1-5, 5 mg/kg): 20.85 g and 20.72 g and 20.22 g and 21.21 g and 20.94 g
- Mouse Weight ([1]; Day 11, IgG1 (10 mg/kg), per mouse 1-5, 10 mg/kg): 20.77 g and 20.5 g and 20.97 g and 21.03 g and 20.94 g
- Mouse Weight ([1]; Day 11, IgG1 (15 mg/kg), per mouse 1-5, 15 mg/kg): 20.35 g and 20.89 g and 21.32 g and 21.08 g and 20.47 g
- Mouse Weight ([1]; Day 11, IgG1 (25 mg/kg), per mouse 1-5, 25 mg/kg): 20.11 g and 20.4 g and 19.5 g and 20.84 g and 21.5 g
- Mouse Weight ([1]; Day 14, IgG1 (5 mg/kg), per mouse 1-5, 5 mg/kg): 20.75 g and 21.06 g and 20.89 g and 21.69 g and 20.67 g
- Mouse Weight ([1]; Day 14, IgG1 (10 mg/kg), per mouse 1-5, 10 mg/kg): 20.15 g and 20.69 g and 21.19 g and 21.53 g and 20.71 g
- Mouse Weight ([1]; Day 14, IgG1 (15 mg/kg), per mouse 1-5, 15 mg/kg): 20.47 g and 21.16 g and 21.65 g and 20.87 g and 21.13 g
- Mouse Weight ([1]; Day 14, IgG1 (25 mg/kg), per mouse 1-5, 25 mg/kg): 20.13 g and 21.05 g and 20.39 g and 21.39 g and 21.62 g
- Mouse Weight ([1]; Day 18, IgG1 (5 mg/kg), per mouse 1-5, 5 mg/kg): 21.11 g and 21.36 g and 20.44 g and 20.69 g and 21.33 g
- Mouse Weight ([1]; Day 18, IgG1 (10 mg/kg), per mouse 1-5, 10 mg/kg): 21.27 g and 20.66 g and 21.04 g and 20.85 g and 21.37 g
- Mouse Weight ([1]; Day 18, IgG1 (15 mg/kg), per mouse 1-5, 15 mg/kg): 20.73 g and 21.69 g and 20.31 g and 20.9 g and 21.29 g
- Mouse Weight ([1]; Day 18, IgG1 (25 mg/kg), per mouse 1-5, 25 mg/kg): 21.14 g and 21.03 g and 20.46 g and 21.57 g and 21.77 g
- Mouse Weight ([1]; Day 21, IgG1 (5 mg/kg), per mouse 1-5, 5 mg/kg): 20.92 g and 21.85 g and 21.42 g and 21.87 g and 21.66 g
- Mouse Weight ([1]; Day 21, IgG1 (10 mg/kg), per mouse 1-5, 10 mg/kg): 21.25 g and 21.16 g and 20.97 g and 21.13 g and 21.28 g
- Mouse Weight ([1]; Day 21, IgG1 (15 mg/kg), per mouse 1-5, 15 mg/kg): 20.6 g and 21.12 g and 21.33 g and 20.4 g and 21.98 g
- Mouse Weight ([1]; Day 21, IgG1 (25 mg/kg), per mouse 1-5, 25 mg/kg): 21.3 g and 22.05 g and 21.54 g and 20.62 g and 21.57 g
- Mouse Weight ([1]; Day 25, IgG1 (5 mg/kg), per mouse 1-5, 5 mg/kg): 22.45 g and 21.06 g and 21.98 g and 22.14 g and 22.16 g
- Mouse Weight ([1]; Day 25, IgG1 (10 mg/kg), per mouse 1-5, 10 mg/kg): 22.27 g and 22.35 g and 21.64 g and 20.37 g and 22.93 g
- Mouse Weight ([1]; Day 25, IgG1 (15 mg/kg), per mouse 1-5, 15 mg/kg): 22.28 g and 21.01 g and 22.42 g and 20.52 g and 22.73 g
- Mouse Weight ([1]; Day 25, IgG1 (25 mg/kg), per mouse 1-5, 25 mg/kg): 22.17 g and 21.73 g and 22.39 g and 21.5 g and 20.56 g
- Mouse Weight ([1]; Day 28, IgG1 (5 mg/kg), per mouse 1-5, 5 mg/kg): 22.42 g and 23.8 g and 22.04 g and 21.81 g and 21.72 g
- Mouse Weight ([1]; Day 28, IgG1 (10 mg/kg), per mouse 1-5, 10 mg/kg): 22.71 g and 23.8 g and 21.44 g and 22.24 g and 21.16 g
- Mouse Weight ([1]; Day 28, IgG1 (15 mg/kg), per mouse 1-5, 15 mg/kg): 22.57 g and 21.49 g and 23.11 g and 21.72 g and 23.44 g
- Mouse Weight ([1]; Day 28, IgG1 (25 mg/kg), per mouse 1-5, 25 mg/kg): 22.62 g and 23.62 g and 22.69 g and 21.64 g and 23.4 g
- Mouse Weight ([1]; IgG1 40 mg/kg group, Day 0, individual mice 1-5, 40 mg/kg): 20.64 g and 20.79 g and 20.06 g and 20.43 g and 19.66 g
- Mouse Weight ([1]; IgG1 40 mg/kg group, Day 4, individual mice 1-5, 40 mg/kg): 20.37 g and 20.71 g and 19.79 g and 20.56 g and 20.73 g
- Mouse Weight ([1]; IgG1 40 mg/kg group, Day 7, individual mice 1-5, 40 mg/kg): 20.29 g and 20.01 g and 20.53 g and 21.04 g and 20.66 g
- Mouse Weight ([1]; IgG1 40 mg/kg group, Day 11, individual mice 1-5, 40 mg/kg): 20.49 g and 21.74 g and 20.21 g and 21.3 g and 20.92 g
- Mouse Weight ([1]; IgG1 40 mg/kg group, Day 14, individual mice 1-5, 40 mg/kg): 21.19 g and 20.75 g and 20.83 g and 20.91 g and 20.61 g
- Mouse Weight ([1]; IgG1 40 mg/kg group, Day 18, individual mice 1-5, 40 mg/kg): 21.32 g and 21.28 g and 21.36 g and 20.36 g and 21.14 g
- Mouse Weight ([1]; IgG1 40 mg/kg group, Day 21, individual mice 1-5, 40 mg/kg): 21.75 g and 20.47 g and 21.5 g and 21.64 g and 21.77 g
- Mouse Weight ([1]; IgG1 40 mg/kg group, Day 25, individual mice 1-5, 40 mg/kg): 22.33 g and 21.23 g and 22.07 g and 21.9 g and 22.06 g
- Mouse Weight ([1]; IgG1 40 mg/kg group, Day 28, individual mice 1-5, 40 mg/kg): 23.59 g and 23.7 g and 22.4 g and 21.39 g and 22.91 g
- Tumor Length [2]: 4.41 mm and 4.54 mm and 4.71 mm and 5.12 mm and 4.93 mm
